What was measured:
[1] = target: mEGFP tagged quaternary complexes
[2] = target: mEGFP tagged quaternary complexes; remark: listed apart in the source

Substance	percent decrease in fluorescence (FRET quench) [1]	percent quenching [2]
Cul5(N)-sREACh (human Cul5 residues 2-384 with V341R, L345D, C-terminally tagged with sREACh with F46L, Q69M, F223R)	8%	–
sREACh-Cul5(N) (sREACh with F46L, Q69M, F223R, flexible linker, human Cul5 residues 2-384 with V341R, L345D)	–	20%

— patent US20150268247A1, “Assay for Screening of Anti-Viral Compounds That Inhibit Specific Interaction Interfaces Between Cullin5 and an ElonginB/ElonginC/ CBF-beta/HIV-1 Vif Complex” (UNIVERSITY OF ROCHESTER, priority 2012, published 2015)
